In experiment [1] the target is myh9_human MYH9 (UniProt P35579).
For experiment [2] the target is unchanged. The source holds these as a separate data set.

Chain of myh9_human MYH9 (P35579 whole entry): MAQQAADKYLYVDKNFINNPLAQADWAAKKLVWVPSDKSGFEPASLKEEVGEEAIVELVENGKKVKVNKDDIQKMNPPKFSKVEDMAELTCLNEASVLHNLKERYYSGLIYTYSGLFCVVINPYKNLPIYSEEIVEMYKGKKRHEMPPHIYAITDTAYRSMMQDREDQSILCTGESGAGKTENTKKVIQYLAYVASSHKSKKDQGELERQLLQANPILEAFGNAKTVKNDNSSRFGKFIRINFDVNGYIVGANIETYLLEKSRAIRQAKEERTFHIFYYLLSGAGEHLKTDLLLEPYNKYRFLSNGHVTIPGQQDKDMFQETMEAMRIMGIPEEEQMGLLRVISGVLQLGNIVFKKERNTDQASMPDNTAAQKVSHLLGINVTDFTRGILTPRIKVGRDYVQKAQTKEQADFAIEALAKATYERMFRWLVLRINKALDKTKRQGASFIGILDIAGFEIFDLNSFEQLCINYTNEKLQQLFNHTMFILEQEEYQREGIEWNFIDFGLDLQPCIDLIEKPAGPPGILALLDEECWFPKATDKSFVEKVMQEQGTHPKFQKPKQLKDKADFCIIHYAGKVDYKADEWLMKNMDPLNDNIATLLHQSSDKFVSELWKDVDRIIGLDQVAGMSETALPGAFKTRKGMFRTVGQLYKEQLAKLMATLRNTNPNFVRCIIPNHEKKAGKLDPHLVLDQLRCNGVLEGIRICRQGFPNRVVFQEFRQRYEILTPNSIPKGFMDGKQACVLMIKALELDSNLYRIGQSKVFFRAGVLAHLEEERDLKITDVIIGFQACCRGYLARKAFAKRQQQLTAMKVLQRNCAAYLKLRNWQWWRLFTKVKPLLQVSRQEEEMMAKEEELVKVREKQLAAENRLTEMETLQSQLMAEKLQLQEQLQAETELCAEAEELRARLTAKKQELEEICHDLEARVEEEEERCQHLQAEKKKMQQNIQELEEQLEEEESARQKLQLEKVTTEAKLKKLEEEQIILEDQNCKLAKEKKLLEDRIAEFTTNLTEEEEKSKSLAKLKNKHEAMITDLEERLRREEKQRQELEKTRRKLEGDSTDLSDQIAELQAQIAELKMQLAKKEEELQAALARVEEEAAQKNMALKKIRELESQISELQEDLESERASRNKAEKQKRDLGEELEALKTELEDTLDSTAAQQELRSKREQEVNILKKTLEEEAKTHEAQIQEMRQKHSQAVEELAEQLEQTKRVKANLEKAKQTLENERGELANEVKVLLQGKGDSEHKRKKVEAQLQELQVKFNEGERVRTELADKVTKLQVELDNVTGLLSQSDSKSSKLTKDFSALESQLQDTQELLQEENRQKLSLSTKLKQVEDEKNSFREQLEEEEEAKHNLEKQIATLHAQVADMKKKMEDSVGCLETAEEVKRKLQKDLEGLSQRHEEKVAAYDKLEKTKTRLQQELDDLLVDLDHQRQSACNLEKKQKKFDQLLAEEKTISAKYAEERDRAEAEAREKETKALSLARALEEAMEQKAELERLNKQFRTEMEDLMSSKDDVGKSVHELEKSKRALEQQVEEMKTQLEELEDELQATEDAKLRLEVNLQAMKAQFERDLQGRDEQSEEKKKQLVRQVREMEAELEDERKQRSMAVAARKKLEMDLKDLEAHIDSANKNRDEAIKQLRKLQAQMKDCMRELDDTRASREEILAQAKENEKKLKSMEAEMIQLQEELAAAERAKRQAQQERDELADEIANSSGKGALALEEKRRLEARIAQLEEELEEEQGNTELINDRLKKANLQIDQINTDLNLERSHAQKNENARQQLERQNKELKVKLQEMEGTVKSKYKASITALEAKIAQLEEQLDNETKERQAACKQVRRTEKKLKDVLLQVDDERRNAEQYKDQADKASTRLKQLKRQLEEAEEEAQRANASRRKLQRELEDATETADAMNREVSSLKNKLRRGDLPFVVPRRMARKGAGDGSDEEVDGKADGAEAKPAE
Chain of Protein S100-A4 (Homo sapiens), P26447 C3S;F45W;C81S;C86S (P26447 whole entry C3S/F45W/C81S/C86S): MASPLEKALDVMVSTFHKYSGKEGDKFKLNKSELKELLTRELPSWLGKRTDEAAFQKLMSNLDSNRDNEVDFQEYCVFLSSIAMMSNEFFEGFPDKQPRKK

For “Protein S100-A4 (Homo sapiens), P26447 C3S;F45W;C81S;C86S”, the “effect of a mutation on the interaction” value with myh9_human MYH9 [1] is listed as “decreasing interaction strength”. Consider “Protein S100-A4 (Homo sapiens), P26447 F45W”, for which the “effect of a mutation on the interaction” value with myh9_human MYH9 [2] was “with no effect”.

(Values after IntAct's records for PubMed 22460785.)
